Laboratory results as given in the nanobody polyreactivity screen of Harvey et al. (2022).

Experiment: yeast display, Sf9 membrane polyspecificity reagent, FACS + sequencing; frameworks hold sequencing errors
Method in brief: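 A nanobody's polyreactivity label depends on the gate it was sorted from. Yeast display cells were stained with 10% biotinylated, detergent-solubilized Sf9 membrane reagent for 1 hour at 4 °C, enriched on streptavidin microbeads and sorted by FACS. The low and high (top ~1%) gates were set on anti-HA fluorescence for expression and streptavidin fluorescence for reagent binding.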

Row | Sequence | polyreactivity (PSR sort gate)
1 | QVQLVESGGGLVQAGGSLRLSCAATARNFYRYAMAWYRQAPGKERELVARITSAGSTDYADSVKGRFTISRDNAKNTVYLQMNSLKPEDTAVYYCAAFGFSYRTFWYDYWGQGTQVTVSS | high polyreactivity
2 | QVQLVESGGGLVQAGGSLRLSCAATGFIFRYYAMGWYSQAPGKERELVATISSGGGTHYADSVKGRYSISRDNAKNTVYLKMNSLKPEDTAVYYCNARGYRRLRTRVDYWGQGTQVTVSS | high polyreactivity
3 | QVQLVESGGGLVQAGGSLRLSCAATGFTFASYAMRLYRQAAGKETELVAAITWGTGTTSYADSVKGRFTISRDNAKNTVYLQMNSLKPEDTAVYYCATRFRPITYRRRYDYWGQGTQVTVSS | low polyreactivity
4 | QVQLVESGGGLVQAGGSLRLSCAATGGTIYYYAMGWYRQAPGKERELVAAISTSGTSTYYADSVKGRFTISRDNAKNTVYLQMNSLKPEDTAVYYCAARGLRVSSRGYYWGQGTQVTVSS | high polyreactivity
5 | QVQLVESGGGLVQAGGSLRLSCAATGITFQPYTMGWYRQAPGKERELVASISIRGSRTYYADSVKGRFTISRDNAKNTVYLQMNSLKPEDTAVYYCNAPYNHVWAHSYWYDYWGQGTQVTVSS | high polyreactivity
6 | QVQLVESGGGLVQAGGSLRLSCAATGITFYTYAMGWYRQAPGKERELVAAITRSGGSTYYADSVKGRFTISRDNAKNTVYLQMNSLKPEDTAVYYCAADGGYIYWEHLYYSGSDYWGQGTQVTVSS | low polyreactivity
7 | QVQLVESGGGLVQAGGSLRLSCAATGITLYGYFMGWYRQAPGKERELVAAISRSGGSTYYADSVMGRFTISRDNAKNTVYLQMNSLKPEDTAVYYCAKVPRYYYDSEFDYWGQGTQVTVSS | high polyreactivity
8 | QVQLVESGGGLVQAGGSLRLSCAATGLTFWVNAMAWYRQAPGKERELVADITRSGGITNYADSVKGRFTISRDNANNTVYLQMNSLKPEDNAVYYCNADQRVDHDDFDYWGKGTQVTVSS | low polyreactivity
9 | QVQLVESGGGLVQAGGSLRLSCAATGLTFYLNAMGWYRQAPGKEREFVAAINYSVGSTYYADSVKGRFTISRDNAKNTVYLQMNSLKPEDTAVFYCAADGYLYFKVDNEYWGQGTQVTVSS | low polyreactivity
10 | QVQLVESGGGLVQAGGSLRLSCAATGRIFYRNAMGWYRQAPGKERELVAAIRGSGGRTYYADSVKGRFTISRDNAKNTVYLQMNSLKPEDTAVYYCAAYGYYVEHPRGLSGPYDDDYWGQGTQVTVSS | low polyreactivity
11 | QVQLVESGGGLVQAGGSLRLSCAATGRTFRLYAMGWYRQAPGKERELVAAITRGGRTNYADSVKGRFTISRDNAKNTVYLQMNSLKPEDTAVYYCAARYRLPIPGTQYEYWGQGTQVTVSS | low polyreactivity
12 | QVQLVESGGGLVQAGGSLRLSCAATGRTFSSYAMGWYRQAPGKEREFLARISSSRGRTSYADSVKGRFTISRDNAKNTVYVQMNSLKPEDTAVYYCAARPPYRVGIVPLGRREYYWGRGTQVTVSS | high polyreactivity
13 | QVQLVESGGGLVQAGGSLRLSCAATGRTLPPNAMGSYRQAPGKERELVAGITWSGGSTYYADSVKGRFTISRDNAKNTVYLQMNSLKPEDTAVYYCAASRSFPGYGLYYYWGQGTQVTVSS | low polyreactivity
14 | QVQLVESGGGLVQAGGSLRLSCAATGSIDSNALGWYRQAPGKERELVADITSGTPTYADSVKGRFTITRDNAKNTVYLQMNSLKPEDTAVYYCAADIPPWGGDYWGQGTQVTVSS | low polyreactivity
15 | QVQLVESGGGLVQAGGSLRLSCAATGSIFRGYAMGWYRQAPGKERELVAAITSGGSTNYADSVKGRFTISRDNAKNTVYLQMNSLKPEDTAVYYCAKDLALVAPLSDYWGQGTQVTVSW | low polyreactivity
16 | QVQLVESGGGLVQAGGSLRLSCAATGSIFTAYDMGWYRQAPGKERELVAAINVSAGTTYYADSVKGRFTISRDNAKNTVYLQMNSLKPEDTAVYYCATDRSPTPYTRENIYDYWGQGTQVTVSS | low polyreactivity
17 | QVQLVESGGGLVQAGGSLRLSCAATGSIFVGYVMGWYRQAAGKERELVAAISRSGGRTYYADSVKGRFTISRDNAKNTVYLQMNSLKPEDTAVYYCAVRHRFYTAGYDYWGQGTQVTVSS | low polyreactivity
18 | QVQLVESGGGLVQAGGSLRLSCAATGSILVYYAMGWSRQAPGKERELVAAISSGGSTNYADSVKGRFTISRDNAKNTVYLQMNSLKPEDTAVYYCDKESGWVGAIHYDYWGQGTQVTVSS | low polyreactivity
19 | QVQLVESGGGLVQAGGSLRLSCAATGSTFAKYAMCSYRQAPGKERELVASISGSGGSTYYADSVKGRFTISRDNAKNTFYLQMNSLIPEDTAVYYSAARRYVWYYWGQGTQVTVSW | high polyreactivity
20 | QVQLVESGGGLVQAGGSLRLSCAATGSTFDRYGMGWYRQAPGKERELVAAINSGDITNYADSVKGRFTISRDNAKNTVYLQMNSLKPEDTAVYYCNAGIRYFVVGRSSYDYWGQGTQVTVSS | low polyreactivity
21 | QVQLVESGGGLVQAGGSLRLSCAATGSTFIDNARGWYRQAPGKERELVAAINSSGGNTYYADSVKGRFTISRDNAKNTVYLQMNSLKPEDTAVYYCNAEFSVLYFYDYEYWGQGTQVTVSS | low polyreactivity
22 | QVQLVESGGGLVQAGGSLRLSCAATGSTFIFYAMGWYRQAPGKERELVAAISWSGGSTYYADSVKGRFTISRDNAKNTVYLQMNSLKPEDTAVYYCNARWSSWYIHSHYYYWGQGTQVTVSS | high polyreactivity

Row | Sequence | polyreactivity (PSR sort gate)
23 | QVQLVESGGGLVQAGGSLRLSCAATGSTFRKYAMGWYRQAPGKEREFVAAISSAGGRTYYADSVKGRFTISRDNAKNTVYLQMNSLKPEDTAVYYCNAYFRYSYDYWGQGTQVTVSS | high polyreactivity
24 | QVQLVESGGGLVQAGGSLRLSCAATGSTFYVNDMGWYRQAPGKERELVAAIDWTGGTTYYADSEKGRFTISRDNAKNTVYLQMNSLKPEDSAVYYCAVDDSTVDYDYWGQGTQVTVSS | low polyreactivity
25 | QVQLVESGGGLVQAGGSLRLSCAATGSTIPYYAMGWYRQAPGKERELVARITSGDRTYYADSVKGRFTISRDNAKNTVYLQMNSLKPEDTADYYCNAQVHYYSWYGYWGQGTQVTVSS | high polyreactivity
26 | QVQLVESGGGLVQAGGSLRLSCAATGSTRYYAMGWYRHAPGKERELVASIASIGGSTSYADSVKGRFTISRDNAKNTVYLQMNSLKPEDTAVYYCATRSLVYSARAAGLIQFDHWGQGTQVTVSS | low polyreactivity
27 | QVQLVESGGGLVQAGGSLRLSCAATRYTFSHYAMGCYRQAPGKERELVAAMSGSGGNTYYADSVKGRFTISRDHAKNTVYLQMNSLKPEDTAVYYCNADNEYRLGYWDDSWVQGTQVTVSS | low polyreactivity
28 | QVQLVESGGGLVQAGGSLRLSCAAYEFIFARNGMGWSRQAPGKERELVAAITNSGSTYADSVKGRFTISRDNAKNTVYLQMNSLKPEDTAVYYCNKDPGNVSSYNGGGYWGQGTQVTVSS | low polyreactivity
29 | QVQLVESGGGLVQAGGSLRLSCAAYGFIFLENDMGWYRQAPGKERELVASINSGSDTNYADSVKGRFTISRDNAKNTVYLQMNSLKPEDTAVYYCNASYNGVPARYDYWGQGTQVTVSS | low polyreactivity
30 | QVQLVESGGGLVQAGGSLRLSCAAYGFTFSWYAMGWYRQAPGKERELVAAISSSGGSTYYADSVKGRFTISRDNAKNTVYLQMNSLKPEDTAVYYCNAYRSASVVVGYDYWGQGTQVTVSS | high polyreactivity
31 | QVQLVESGGGLVQAGGSLRLSCAAYGGIFPAYAMGWYRQAPGKERELVAAISSSGRTYYADSVKGRFTISRDNAKNTVYLQMNSVKPEDTAVYYCAAYGGYRGWVFGSYGSWGQGTQVTVSS | high polyreactivity
32 | QVQLVESGGGLVQAGGSLRLSCAAYGIIFYLYAMGWYRTAPGKERELVAAITWNGGRTYYADSVKGRFTISRDNAKNTVYLQMNSLKPEDTAVYYCNTDRRWRGTYTTRYDYWGQGTQVTVSS | low polyreactivity
33 | QVQLVESGGGLVQAGGSLRLSCAAYGITFAYYVMGWYRQAPGKERELVAAISRSGSTYYADSVKGRFTISRDNAKITVYLQMNCLKPEDTAVYYCAVLYIRWYTYEYWGQGTQVTVSS | high polyreactivity
34 | QVQLVESGGGLVQAGGSLRLSCAAYGITFEVNAMGWYRQAPGKERELVAAINSSVASTYYADSVKGRFTISRDNAKNTVDLQMNSLKPEDTAVYYCAAQGKGGTEYGYGYWGQGTQVTVSS | low polyreactivity
35 | QVQLVESGGGLVQAGGSLRLSCAAYGLTFPWNAMGWYRQSPGKERELVAAITSRGGNTYYADSVKGRFTISRDNAKNTVYLQMNSLKPEDTAVYYCAARQYWSYRRYDYWGQGTQVTVSS | high polyreactivity
36 | QVQLVESGGGLVQAGGSLRLSCAAYGNTFEGYAKGWYRQAPGKERELVAAISGSSGSTYYADSVKGRFTISRDNAKNTVYLQMNSLKPEDTAVYYCAAYSYYPPYDYWGQGTQVTVSS | high polyreactivity
37 | QVQLVESGGGLVQAGGSLRLSCAAYGNTFSQYAKGWYRQAPGKERELVATISKSSGSTSYTDSVKGRFTISRDNAKNTVYLQLNSLKPEDSAVYYCNADSSDVYHHLGVLFFSTWYDYWGQGTLVTVSS | low polyreactivity
38 | QVQLVESGGGLVQAGGSLRLSCAAYGRIFAPNAMGWYRQAPGKERELVATISWSGGSTYYADSVNGRFTISRDNSKNYVYLQMNSLKPEDTAVYYCAGSNYQYGVISYDYWGKGTQVTVSS | low polyreactivity
39 | QVQLVESGGGLVQAGGSLRLSCAAYGRIFFRYAMGWYRQAPGKERELVATISSSGSTYYADSVKGRFTISRDNAKNTVYLQMNSLIPEDTAVYYCAATWTTRGLRHFVYNDYDYWGQGTQVTVSS | high polyreactivity
40 | QVQLVESGGGLVQAGGSLRLSCAAYGRIFWLYAMGWYRQAPGKERELVAVISWSGGTTYYADSVKGRFTISRDNAKNTVYLQMNSLKPEVTAVYYCAKQGWTSYDYWGQGTQVTVSS | low polyreactivity
41 | QVQLVESGGGLVQAGGSLRLSCAAYGRTFHAYAKGWYRQAPGKGRELVAAITRTGTTHYADSVKGRFTISRDNAKNTVYLQMNSLKPEDTAVYYCAAQHVRVDAQFVLQGYDYWGQGTQVTVSS | low polyreactivity
42 | QVQLVESGGGLVQAGGSLRLSCAAYGRTFLYNAMGWYRQAPGKERELVAAISSRGARTYYADSVKGRFTISRDNAKNTVYLQMNSLKPEDTAVYYCATDSYRYDGIQYLYEYYYWGQGTQVTVSS | high polyreactivity
43 | QVQLVESGGGLVQAGGSLRLSCAAYGRTFRLNAMGWYRQAPGKERELVAGIRVRAGTTYYADSVKGRFTISRDNAKNTVYLQMNSLKPEDTAVYYCAAESYSRSRKYDYWGQGTQVTVSS | high polyreactivity
